Changes are numbered by the printed parent chain. Numbers in names are those of the source.

The Kd is the constant that tells how readily two partners part at equilibrium.

The labels stand for the following.
T1: EsCas13d, nuclease-dead (Eubacterium siraeum, UniProt B0MS50, R295A;H300A;R849A;H854A)
T1 sequence: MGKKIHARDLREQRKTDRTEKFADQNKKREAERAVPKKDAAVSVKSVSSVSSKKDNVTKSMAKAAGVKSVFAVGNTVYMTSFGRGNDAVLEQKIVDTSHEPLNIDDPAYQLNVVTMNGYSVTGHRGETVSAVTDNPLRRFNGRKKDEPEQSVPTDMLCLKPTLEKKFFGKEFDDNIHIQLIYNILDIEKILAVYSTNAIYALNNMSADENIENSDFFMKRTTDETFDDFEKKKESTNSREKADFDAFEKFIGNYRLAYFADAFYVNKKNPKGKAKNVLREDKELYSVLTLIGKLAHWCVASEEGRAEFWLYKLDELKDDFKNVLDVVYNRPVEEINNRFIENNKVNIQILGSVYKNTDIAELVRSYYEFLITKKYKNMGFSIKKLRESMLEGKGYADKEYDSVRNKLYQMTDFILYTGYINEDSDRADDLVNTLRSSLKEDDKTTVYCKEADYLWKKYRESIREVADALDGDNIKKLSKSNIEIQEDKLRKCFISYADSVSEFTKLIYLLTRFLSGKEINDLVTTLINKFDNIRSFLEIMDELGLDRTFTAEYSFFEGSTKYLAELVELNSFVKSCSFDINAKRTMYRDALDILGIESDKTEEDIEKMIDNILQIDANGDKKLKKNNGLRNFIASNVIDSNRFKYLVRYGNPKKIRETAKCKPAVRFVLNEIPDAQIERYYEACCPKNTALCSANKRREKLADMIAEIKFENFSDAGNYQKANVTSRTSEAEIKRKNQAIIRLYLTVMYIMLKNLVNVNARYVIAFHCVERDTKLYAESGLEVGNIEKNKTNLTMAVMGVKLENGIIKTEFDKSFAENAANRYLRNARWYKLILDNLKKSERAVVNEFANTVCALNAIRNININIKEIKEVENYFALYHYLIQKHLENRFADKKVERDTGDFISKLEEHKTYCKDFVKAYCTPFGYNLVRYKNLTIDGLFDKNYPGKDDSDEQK

B1: target 1 insU 3' of 12,insU 3' of 7 (mixed)
RNA 1: CACCCGUGCAAAAAUGCAGGGGUCUAAAACUGAGCGGAUAACCUCUCUAUGG
RNA 2: GGGAAUGGAUCCACAUCUACGAAUUCGUACCAUAGAGAGGUUUAUCUCGCUCACCGAGAUCGGAAGAGCACACGU
B2: target 1 insA 3' of 17,insA 3' of 15 (mixed)
RNA 1: B1 RNA 1
RNA 2: GGGAAUGGAUCCACAUCUACGAAUUCGUACCAUAGAAGAAGGUUAUCCGCUCACCGAGAUCGGAAGAGCACACGU
B3: target 1 insA 3' of 19,insA 3' of 3 (mixed)
RNA 1: B1 RNA 1
RNA 2: GGGAAUGGAUCCACAUCUACGAAUUCGUACCAUAAGAGAGGUUAUCCGCUACACCGAGAUCGGAAGAGCACACGU
B4: target 1 insC 3' of 13,insA 3' of 4 (mixed)
RNA 1: B1 RNA 1
RNA 2: B1 RNA 2 with G40C, U41G, U47C, C48G, G49C, C50A
B5: target 1 insC 3' of 18,insU 3' of 18 (mixed)
RNA 1: B1 RNA 1
RNA 2: B2 RNA 2 with G35C, A36U, A37G, G38A, A39G
B6: target 1 insC 3' of 18,insA 3' of 15 (mixed)
RNA 1: B1 RNA 1
RNA 2: B2 RNA 2 with G35C, A36G
B7: target 1 insC 3' of 12,insU 3' of 12 (mixed)
RNA 1: B1 RNA 1
RNA 2: B1 RNA 2 with U41C, A44U, U45A, C46U, U47C
B8: target 1 A9G,A14U (mixed)
RNA 1: B1 RNA 1
RNA 2: GGGAAUGGAUCCACAUCUACGAAUUCGUACCAUAGAGUGGUUGUCCGCUCACCGAGAUCGGAAGAGCACACGU
B9: target 1 insC 3' of 13,insG 3' of 11 (mixed)
RNA 1: B1 RNA 1
RNA 2: B2 RNA 2 with A37G, G38A, A39G, A40C, G42U, U43G
B10: target 1 insA 3' of 15,insC 3' of 10 (mixed)
RNA 1: B1 RNA 1
RNA 2: B2 RNA 2 with A37G, G38A, A40G, G42U, U44C
B11: target 1 del4,del15 (mixed)
RNA 1: B1 RNA 1
RNA 2: GGGAAUGGAUCCACAUCUACGAAUUCGUACCAUAGAAGGUUAUCCGUCACCGAGAUCGGAAGAGCACACGU
B12: target 1 insC 3' of 19,insU 3' of 12 (mixed)
RNA 1: B1 RNA 1
RNA 2: B2 RNA 2 with A34C, G35A, A36G, A40G, G42U
B13: target 1 insA 3' of 12,insU 3' of 7 (mixed)
RNA 1: B1 RNA 1
RNA 2: B1 RNA 2 with U41A
B14: target 1 C4A,U19A (mixed)
RNA 1: B1 RNA 1
RNA 2: B8 RNA 2 with U33A, U38A, G43A, C48A
B15: target 1 insA 3' of 15,insU 3' of 6 (mixed)
RNA 1: B1 RNA 1
RNA 2: B1 RNA 2 with G39A, U41G, U47C, C48U
B16: target 1 A14G,U19A (mixed)
RNA 1: B1 RNA 1
RNA 2: B8 RNA 2 with U33A, U38G, G43A
B17: target 1 A9G,G12C (mixed)
RNA 1: B1 RNA 1
RNA 2: B8 RNA 2 with U38A, G40C
B18: target 1 insC 3' of 14,insA 3' of 12 (mixed)
RNA 1: B1 RNA 1
RNA 2: B2 RNA 2 with A37G, G38A, A39C, A40G, G42A
B19: target 1 insG 3' of 18,insG 3' of 11 (mixed)
RNA 1: B1 RNA 1
RNA 2: B2 RNA 2 with A36G, A40G, G42U, U43G
B20: target 1 insA 3' of 11,insA 3' of 2 (mixed)
RNA 1: B1 RNA 1
RNA 2: B1 RNA 2 with U42A, U47C, C48G, G49C, C50U, U51C, C52A
B21: target 1 insA 3' of 21,insG 3' of 4 (mixed)
RNA 1: B1 RNA 1
RNA 2: B3 RNA 2 with U33A, A34U, U50G, A51U
B22: target 1 C7A,U10G (mixed)
RNA 1: B1 RNA 1
RNA 2: B8 RNA 2 with U38A, U42G, G43A, C45A
B23: target 1 insA 3' of 13,insU 3' of 2 (mixed)
RNA 1: B1 RNA 1
RNA 2: B3 RNA 2 with A35G, G36A, A37G, G38A, A39G, G40A, A51C, C52U
B24: target 1 insU 3' of 21,insC 3' of 18 (mixed)
RNA 1: B1 RNA 1
RNA 2: B2 RNA 2 with A32U, U33A, A34U, G35A, A36C, A37G, G38A, A39G
B25: target 1 insG 3' of 19,insC 3' of 13 (mixed)
RNA 1: B1 RNA 1
RNA 2: B2 RNA 2 with A34G, G35A, A36G, A40G, G41C
B26: target 1 U8C,A14C (mixed)
RNA 1: B1 RNA 1
RNA 2: B8 RNA 2 with U38C, G43A, U44C
B27: target 1 A1G,C22U (mixed)
RNA 1: B1 RNA 1
RNA 2: B8 RNA 2 with C30U, U38A, G43A, A51G
B28: target 1 C4G,U11A (mixed)
RNA 1: B1 RNA 1
RNA 2: B8 RNA 2 with U38A, U41A, G43A, C48G
B29: target 1 insA 3' of 22,insU 3' of 1 (mixed)
RNA 1: B1 RNA 1
RNA 2: B3 RNA 2 with C31A, A32C, U33A, A34U, A51C, C52A, A53U
B30: target 1 insC 3' of 13,insU 3' of 4 (mixed)
RNA 1: B1 RNA 1
RNA 2: B1 RNA 2 with G40C, U41G, U47C, C48G, G49C, C50U
B31: target 1 U8G,U10C (mixed)
RNA 1: B1 RNA 1
RNA 2: B8 RNA 2 with U38A, U42C, G43A, U44G

The target of this series is T1, EsCas13d, nuclease-dead. Kind of series: crRNA (strand 1, pre-loaded); Mg2+; 40 mM Tris-HCl pH 7.5, 150 mM NaCl, 6 mM MgCl2, 1 mM DTT, 0.1% Tween-20, 0.2 mg/ml BSA; 25 C; 10 min per concentration, then washed. To be noted: tags: His6-TwinStrep-SUMO cleaved; N-terminal SNAP kept (SNAP-Surface 488); label: 3' end held by stalled T7 RNA polymerase.
In turn, B1 yielded a Kd of 16.2 ± 0.6 nM.
As to B2, binding was characterised by a dissociation constant (Kd) of 8 ± 0.8 nM.
Then B3, with 16.7 ± 1 nM.
As for B4, the figure is 4.86 ± 0.17 nM.
As for B5, the figure is 57 ± 6 nM; as for B6, 25.1 ± 1.2 nM; as for B7, 10.2 ± 0.8 nM.
B8: binding was characterised by a dissociation constant (Kd) of 65 ± 18 nM.
Turning to B9, the Kd stood at 28.5 ± 3.4 nM.
As for B10, the figure is ~80 nM; as for B11, 56 ± 13 nM; as for B12, 30.6 ± 3.2 nM.
As for B13, the figure is 42 ± 5 nM; as for B14, 68 ± 15 nM; as for B15, 11.3 ± 0.5 nM.
Then B16, with 91 ± 17 nM; and B17, with 9.7 ± 0.4 nM.
The molecule B18 gave a Kd of 70 ± 14 nM.
In turn, B19 had a Kd of 92 ± 24 nM.
Then B20, with 16.1 ± 1.2 nM; and B21, with 14.3 ± 1.1 nM; and B22, with 9.7 ± 0.5 nM.
Then B23, with 4.3 ± 0.4 nM; and B24, with 52 ± 6 nM.
As for B25, the figure is 68 ± 12 nM; as for B26, 81 ± 14 nM.
For B27, binding was put at a Kd of 13.9 ± 2.5 nM.
As for B28, the figure is 9 ± 1 nM; as for B29, 15 ± 0.9 nM.
As for B30, the figure is 8.1 ± 0.4 nM; as for B31, 19.8 ± 1.2 nM.

Values taken from article PMC10786891, “Massively parallel profiling of RNA-targeting CRISPR-Cas13d”.
